From paper PMC7535908, “Dipeptidyl peptidase 3 modulates the renin–angiotensin system in mice” (The Journal of Biological Chemistry, 2020)

Assays:
[1] = target: T1, purified recombinant human DPP3 (hDPP3) (Homo sapiens, UniProt Q9NY33); test: Single-injection ITC enzyme kinetics of angiotensin peptide hydrolysis by hDPP3; assay type: biochemical; settings: for Substrate behaviour with DPP3 (heat signal, result in words): 5 µl of 2 mM peptide into 20 μM hDPP3, pH 8.0, 25 °C, no curve fitting possible for slow or poor substrates; for ΔH (enthalpy of interaction, heat of reaction) / kcat (maximum turnover number) / Km: 5 µl of 2 mM peptide into 200 µl of 20 μM hDPP3, 50 mM Tris-HCl pH 8.0, 100 mM NaCl, 25 °C, means ± S.D., three or more technical replicates from two biological replicates; for kcat (maximum turnover number) / Km: Michaelis–Menten fit, SD; for Km: read-out: Km (Michaelis–Menten constant)
T1 construct: made in house
T1 sequence (Q9NY33 1-737): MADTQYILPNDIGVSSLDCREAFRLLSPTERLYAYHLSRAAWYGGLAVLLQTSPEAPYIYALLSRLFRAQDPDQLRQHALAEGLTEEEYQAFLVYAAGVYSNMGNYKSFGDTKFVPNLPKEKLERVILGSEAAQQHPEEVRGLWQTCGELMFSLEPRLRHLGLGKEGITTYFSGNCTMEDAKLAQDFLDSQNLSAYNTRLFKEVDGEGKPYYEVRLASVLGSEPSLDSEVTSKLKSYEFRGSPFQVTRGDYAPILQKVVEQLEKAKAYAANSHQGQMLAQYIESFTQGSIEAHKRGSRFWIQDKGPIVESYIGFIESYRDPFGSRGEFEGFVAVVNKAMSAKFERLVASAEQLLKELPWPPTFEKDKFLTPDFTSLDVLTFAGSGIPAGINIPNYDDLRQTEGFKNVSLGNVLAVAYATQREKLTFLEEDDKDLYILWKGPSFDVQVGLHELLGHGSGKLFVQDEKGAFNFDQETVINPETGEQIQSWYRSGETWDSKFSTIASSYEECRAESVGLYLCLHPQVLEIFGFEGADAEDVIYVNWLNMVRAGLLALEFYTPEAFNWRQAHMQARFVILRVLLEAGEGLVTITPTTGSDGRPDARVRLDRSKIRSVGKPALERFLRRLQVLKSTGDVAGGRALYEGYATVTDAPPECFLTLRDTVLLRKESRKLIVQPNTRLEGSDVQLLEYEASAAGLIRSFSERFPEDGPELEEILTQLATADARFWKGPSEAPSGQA
Source text: Thus, we investigated the activity of DPP3 against different angiotensin peptides. Kinetic parameters of angiotensin peptides were obtained by single-injection calorimetry measurements that are based on the exothermal hydrolysis of peptide bonds by purified recombinant human DPP3, which shares 93% sequence identity with the mouse DPP3. […] The graphs show the rate of angiotensin conversion as a function of its concentration. The insets depict the raw data of heat change caused by the conversion of substrate peptides.
Figure 9. […] The reaction was started by injecting 5 µl of 2 mM angiotensin peptides to the calorimetric cell containing 20 μM hDPP3. The data represent three or more technical replicates from two biological replicates.
Calorimetric activity of six different angiotensin peptides as purported substrates of DPP3 were further assayed using a MicroCal PEAQ-ITC (Malvern Panalytical Ltd., Malvern, UK). […] For this, the single-injection method was used, in which 5 µl of 2 mM angiotensin peptide was titrated into 200 µl of 20 μM purified hDPP3. The purification of recombinant hDPP3 was done as described in Ref. [35]. Both the ligand and the purified protein were prepared in 50 mM Tris-HCl at pH 8.0 containing 100 mM NaCl. The experiments consisted of a single injection of the ligand continuously over a period of 10 s, including an initial delay of 180 s before the injection and a spacing of 300 s after the injection. The experiments were performed at 25 °C with a stirring speed of 500 rpm. The thermodynamic characterization of this binding interaction was obtained using MicroCal PEAQ-ITC analysis software.

[2] = target: T2, purified recombinant human DPP3 (dipeptidyl peptidase 3) (human) (UniProt Q9NY33)
T2 sequence: T1 sequence (Q9NY33 1-737)

Q: How did the “Substrate behaviour with DPP3 (heat signal, result in words)” value (“Substrate behaviour with DPP3” below) [1] turn out when “Ang I: angiotensin peptide (1–10), commercially purchased (Bachem), tested as purported substrate of DPP3 (DRVYIHPFHL)” was run?
A: poor substrate

Q: With “Ang III: angiotensin peptide (2–8), commercially purchased (Bachem)” as the substance, how does the “Substrate behaviour with DPP3” value [1] read?
A: both endothermic and exothermic behavior

Q: How did the “Substrate behaviour with DPP3” value [1] turn out when “Ang IV: angiotensin peptide (3–8), commercially purchased (Bachem)” was run?
A: both endothermic and exothermic behavior

Q: How did the “Substrate behaviour with DPP3” value [1] turn out when “Ang(1–5): angiotensin peptide (1–5), commercially purchased (Bachem) (DRVYI)” was run?
A: “good” substrates

Q: And the “ΔH (enthalpy of interaction, heat of reaction)” value [1]?
A: -1.84 ± -0.04 kcal/mol

Q: What about the “kcat (maximum turnover number)” value [1] of the same substance?
A: 0.35 ± 0.002 s⁻¹

Q: What about the Km [1] of the same substance?
A: 12.5 ± 2.2 µM

Q: How did the “Substrate behaviour with DPP3” value [1] turn out when “Ang(1–7): angiotensin peptide (1–7), commercially purchased (Bachem), main metabolite of the alternate RAS” was run?
A: “good” substrates

Q: And the “ΔH (enthalpy of interaction, heat of reaction)” value [1]?
A: -1.52 ± -0.10 kcal/mol

Q: What about the “kcat (maximum turnover number)” value [1] of the same substance?
A: 0.14 ± 0.003 s⁻¹

Q: And the Km [1]?
A: 1.95 ± 0.2 µM

Q: Which results are given for “angiotensin (1–5), Ang(1–5) (from UniProt P01019 25-29) (peptide)”?
A: Km, single-injection ITC enzyme kinetics (hydrolysis of the peptide by hDPP3) [2]: 12.5 µM; kcat, single-injection ITC enzyme kinetics (hydrolysis of the peptide by hDPP3) [2]: 0.35 s⁻¹; ΔH (enthalpy of interaction, also called heat of reaction), single-injection ITC [2]: -1.84 kcal/mol

Q: With “angiotensin (1–7), Ang(1–7) (from UniProt P01019 25-31) (peptide)” as the substance, how does the Km, single-injection ITC enzyme kinetics (hydrolysis of the peptide by hDPP3) [2] read?
A: 1.95 µM

Q: What about the kcat, single-injection ITC enzyme kinetics (hydrolysis of the peptide by hDPP3) [2] of the same substance?
A: 0.14 s⁻¹

Q: And the ΔH (enthalpy of interaction, also called heat of reaction), single-injection ITC [2]?
A: -1.52 kcal/mol

Q: What does the source list for “angiotensin II, Ang II (1–8) (from UniProt P01019 25-32) (peptide)”?
A: Km, single-injection ITC enzyme kinetics (hydrolysis of the peptide by hDPP3) [2]: 8.4 µM; kcat, single-injection ITC enzyme kinetics (hydrolysis of the peptide by hDPP3) [2]: 0.25 s⁻¹

Q: How did the “Substrate behaviour with DPP3” value [1] turn out when tynorphin was run?
A: “slow” substrates
